In test [1] the target is T1, human CD47 (cluster of differentiation 47), on cells (human, UniProt Q08722 19-323).
T1 construct: whole, on cells; also called IAP; integrin-associated protein
Description: FACS on primary human platelets, pH 7.3. As to the method:
Human primary platelets were seeded into 96-well plate at 1×10⁶/well and incubated with Fc blocking antibody at room temperature. […] After washing the platelets with 1×PBS+2% FBS at pH 7.3, FITC-labelled anti-human IgG Fc secondary antibody (Abcam, CAT #ab6854) were added and incubated at 4° C. for 30 minutes at pH 7.3. After washing, the platelets were then analyzed by FACS in 1×PBS+2% FBS at pH 7.3.

In test [2] the target is T2, His-tagged CD47 extracellular domain (ECD) protein (Abclonal, CAT #RP01306) (human, UniProt Q08722 19-139).
T2 construct: extracellular domain; Bought; also called recombinant human CD47 protein with His-tag; His-tag human CD47 ECD protein
Description: ELISA, immobilized His-tagged CD47 ECD, fusion protein as analyte. (ELISA stands for enzyme-linked immunosorbent assay.)

B1: MP-24, SIRPαV2 IgV WT-IgG1 Fc hole silent + aCD3 VH-CH1-IgG1 Fc knob silent + aCD3 VL-CL (bispecific antibody)
chain: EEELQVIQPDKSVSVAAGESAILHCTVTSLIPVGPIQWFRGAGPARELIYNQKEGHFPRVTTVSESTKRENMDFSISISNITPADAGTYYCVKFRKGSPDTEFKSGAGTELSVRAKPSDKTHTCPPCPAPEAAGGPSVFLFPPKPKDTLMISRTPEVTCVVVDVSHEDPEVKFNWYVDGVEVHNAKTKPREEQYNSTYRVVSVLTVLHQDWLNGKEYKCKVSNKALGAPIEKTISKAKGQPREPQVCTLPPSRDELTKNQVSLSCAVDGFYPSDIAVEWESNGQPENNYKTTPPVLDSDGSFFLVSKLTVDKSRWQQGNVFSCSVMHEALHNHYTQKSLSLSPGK
heavy: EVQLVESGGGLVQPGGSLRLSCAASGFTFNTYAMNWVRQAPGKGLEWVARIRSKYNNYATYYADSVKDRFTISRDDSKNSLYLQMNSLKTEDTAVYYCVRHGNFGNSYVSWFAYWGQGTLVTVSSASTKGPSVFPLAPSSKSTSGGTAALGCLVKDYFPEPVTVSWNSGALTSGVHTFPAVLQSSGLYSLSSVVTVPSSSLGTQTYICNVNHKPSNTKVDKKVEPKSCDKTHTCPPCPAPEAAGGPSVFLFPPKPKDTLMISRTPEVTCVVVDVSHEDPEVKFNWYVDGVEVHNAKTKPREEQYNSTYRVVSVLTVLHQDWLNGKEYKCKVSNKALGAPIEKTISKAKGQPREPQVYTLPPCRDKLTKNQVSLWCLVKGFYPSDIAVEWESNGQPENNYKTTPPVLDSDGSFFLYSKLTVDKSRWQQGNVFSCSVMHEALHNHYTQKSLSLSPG
light: QAVVTQEPSLTVSPGGTVTLTCRSSTGAVTTSNYANWVQQKPGQAPRGLIGGTNKRAPWTPARFSGSLLGGKAALTITGAQAEDEADYYCALWYSNLWVFGGGTKLTVLGQPKAAPSVTLFPPSSEELQANKATLVCLISDFYPGAVTVAWKADSSPVKAGVETTTPSKQSNNKYAASSYLSLTPEQWKSHRSYSCQVTHEGSTVEKTVAPTECS
notes: Format FV-67; one wild type SIRPαV2 IgV monomer; also called monovalent wild type SIRPαV2 IgV-IgG1 Fc protein
Consider B1, for which the binding result in test [1] and in test [2] was “binds” each time.

Source of the values: patent US20260274921A1 (ADAPTOCUE, published 2026).
